# Reference: US20210244768A1, “CELL COMPOSITIONS AND USES THEREOF” (THE UNIVERSITY OF SYDNEY, priority 2018, published 2021)
# Assays:
# PAVB expression = assay: qPCR of PAVB expression in hiPSC-GABA neurons exposed to BMP4; assay type: cell-based, human; conditions: BMP4 exposure during week 3 (about DIV14 to DIV21); not with week 4 or weeks 3 and 4
# Procedure: (§1) After quantification, 1 μg of RNA was retrotranscribed with Superscript III First-Strand Synthesis SuperMix for qRT-PCR (Thermo Fisher Scientific Life Sciences). A total of 2 μl of cDNA was used for qPCR using the SYBR Select Master Mix. Real-Time PCR was run on a LightCycler 480 Instrument II (Roche Life Science). The cycling program for all genes is the following: • 1. 95° C. 10′ Initial denaturation step • 2. 95° C. 30″ • 3. 58° C. 30″ • 4. 72° C. 30″ go to 2 for 35 cycles • 5. Melting curve analysis.
# (§2) iGABAergic neurons were prepared according to an adaptation of the method described in Example 5. During the GABAergic differentiation protocol, hiPSCs were exposed to BMP4, during week 3 only (i.e. about DIV14 to about DIV21), week 4 only (i.e. about DIV21 to about DIV28) or during week 3 and week 4 (i.e. about DIV14 to about DIV28). Following differentiation (i.e. DIV28) the iGABAergic neurons were assessed for expression of somatostatin (SST) and Parvalbumin (PVALB). BMP4 treated cells were then be tested for their ability to reverse neuropathic pain and compared to non-treated iGABAergic neurons using the SNI model as hereinbefore described.
# SST expression = assay: qPCR of SST expression in hiPSC-GABA neurons exposed to BMP4; assay type: cell-based, human; conditions: BMP4 exposure during either or both of weeks 3 and 4
# Procedure: as §1, §2
molecule,measurement,setting,value
"BMP4: agent which induces BMP signalling, added during GABAergic differentiation of hiPSCs (protein, UniProt P12644 293-408, looked up) Bone morphogenetic protein 4: SPKHHSQRARKKNKNCRRHSLYVDFSDVGWNDWIVAPPGYQAFYCHGDCPFPLADHLNSTNHAIVQTLVNSVNSSIPKACCVPTELSAISMLYLDEYDKVVLKNYQEMVVEGCGCR",increase of PAVB expression,PAVB expression,6 fold
same,reduction of SST expression,SST expression,50%
